Test results published in patent US20030199040A1 (IMMUNEX, published 2003).

Target: monkey IL-1Rrp1 endogenous to COS7 cells (monkey)
Assay: cell-based or functional assay

B1: hAcPL expressed on COS7 cells (receptor)
chain: ERIKGFNISGCSTKKLLWTYSTRSEEEFVLFCDLPEPQKSHFCHRNRLSPKQVPEHLPFMGSNDLSDVQWYQQPSNGDPLEDIRKSYPHIIQDKCTLHFLTPGVNNSGSYICRPKMIKSPYDVACCVKMILEVKPQTNASCEYSASHKQDLLLGSTGSISCPSLSCQSDAQSPAVTWYKNGKLLSVERSNRIVVDEVYDYHQGTYVCDYTQSDTVSSWTVRAVVQVRTIVGDTKLKPDILDPVEDTLEVELGKPLTISCKARFGFERVFNPVIKWYIKDSDLEWEVSVPEAKSIKSTLKDEIIERNIILEKVTQRDLRRKFVCFVQNSIGNTTQSVQLKEKRGVVLLYILLGTIGTLVAVLAASALLYRHWIEIVLLYRTYQSKDQTLGDKKDFDAFVSYAKWSSFPSEATSSLSEEHLALSLFPDVLENKYGYSLCLLERDVAPGGVYAEDIVSIIKRSRRGIFILSPNYVNGPSIFELQAAVNLALDDQTLKLILIKFCYFQEPESLPHLVKKALRVLPTVTWRGLKSVPPNSRFWAKMRYHMPVKNSQGFTWNQLRITSRIFQWKGLSRTETTGRSSQPKEW
- increase in NFκB activity (NFκB-Luc reporter) in COS7 cells transfected with hAcPL alone and stimulated with hIL-18: 8 fold
